Patent US20040014072, “Novel dna synthase” (published 2004)

Tests used:
[1] = molecular target: T1, p41-p46 complex (DNA primase/polymerase) (Pyrococcus furiosus, UniProt Q9P9H1;Q8U4H7 SEQ:1-347,SEQ:1-396); assay: EMSA; 50 mM Tris-Cl pH 8.0, 10 mM MgCl2, 20 mM KCl, 55 C; details: tags: N-terminal His6 on p41, p46 untagged, label: 5'-32P
T1 sequence 1: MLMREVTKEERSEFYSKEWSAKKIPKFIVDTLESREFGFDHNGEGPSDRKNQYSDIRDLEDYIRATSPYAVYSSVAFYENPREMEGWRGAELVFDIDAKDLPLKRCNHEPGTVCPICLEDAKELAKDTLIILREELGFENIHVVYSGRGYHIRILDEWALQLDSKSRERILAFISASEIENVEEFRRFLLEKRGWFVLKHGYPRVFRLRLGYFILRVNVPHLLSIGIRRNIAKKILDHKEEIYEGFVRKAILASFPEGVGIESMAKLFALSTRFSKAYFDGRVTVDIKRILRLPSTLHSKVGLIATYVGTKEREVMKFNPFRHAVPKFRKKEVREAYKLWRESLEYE
T1 sequence 2: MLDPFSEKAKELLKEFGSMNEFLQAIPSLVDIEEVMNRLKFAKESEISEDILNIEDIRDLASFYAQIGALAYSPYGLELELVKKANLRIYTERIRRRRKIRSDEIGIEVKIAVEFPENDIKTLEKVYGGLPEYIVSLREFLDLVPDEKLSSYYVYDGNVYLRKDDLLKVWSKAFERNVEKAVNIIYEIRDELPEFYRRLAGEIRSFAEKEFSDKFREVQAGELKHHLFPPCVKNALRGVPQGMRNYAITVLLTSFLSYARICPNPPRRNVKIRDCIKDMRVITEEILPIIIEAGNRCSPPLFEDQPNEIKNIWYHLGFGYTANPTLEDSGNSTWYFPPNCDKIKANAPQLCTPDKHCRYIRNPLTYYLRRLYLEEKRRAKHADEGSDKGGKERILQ
Protocol: (§1) The gel-shift assey was used to detect binding activity that binds enzyme to DNA. 49 chain-length oligodeoxynuclotide, 5′-d[…] GCT-3′ was labeled with ³²P at 5′ terminal. Then the chain was used for gel-shift assey with itself or annealed with 49 or 17 chain length complementary oligodeoxynuclotide. With these three kinds of DNA, and the proteins were mixed in variety of concentrations in gel-shift assey buffer (50 mM Tris.Cl, pH8.0, 10 mM MgCl₂, 20 mM KCl, and 1 mM β-mercaptoethanol). The mixtures were left for 5 minutes under temperature of 55° C. and separated by electrophoreting with 1% agarose gel. The gel was processed by 0.1×TAE buffer (4 mM Tris-Acetate, pH8.0, 0.1 mM EDTA) and electrophoreted with same buffer. Autoradiography after the electrophoration was shown in FIG. 5. p41-p46 complex bound to all types of DNA and shifted the band as the complex.

[2] = molecular target: T2, p41 (Pyrococcus furiosus, UniProt Q9P9H1 SEQ:1-347); assay: EMSA; no band shift for p41 alone, data not shown; details: tags: N-terminal His6, label: 5'-32P
T2 sequence: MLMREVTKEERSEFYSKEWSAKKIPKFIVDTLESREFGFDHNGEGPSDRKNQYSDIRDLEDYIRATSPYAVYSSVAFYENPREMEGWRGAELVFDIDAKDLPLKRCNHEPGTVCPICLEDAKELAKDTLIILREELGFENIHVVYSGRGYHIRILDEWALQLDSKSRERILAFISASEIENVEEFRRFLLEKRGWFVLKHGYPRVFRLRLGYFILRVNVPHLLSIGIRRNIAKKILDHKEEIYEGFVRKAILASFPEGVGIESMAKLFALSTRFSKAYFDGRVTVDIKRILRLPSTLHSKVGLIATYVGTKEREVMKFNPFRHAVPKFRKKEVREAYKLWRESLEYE
Protocol: as §1

[3] = molecular target: T3, p46 (Pyrococcus furiosus, UniProt Q8U4H7 SEQ:1-396); assay: EMSA; no band shift for p46 alone, data not shown; details: label: 5'-32P
T3 sequence: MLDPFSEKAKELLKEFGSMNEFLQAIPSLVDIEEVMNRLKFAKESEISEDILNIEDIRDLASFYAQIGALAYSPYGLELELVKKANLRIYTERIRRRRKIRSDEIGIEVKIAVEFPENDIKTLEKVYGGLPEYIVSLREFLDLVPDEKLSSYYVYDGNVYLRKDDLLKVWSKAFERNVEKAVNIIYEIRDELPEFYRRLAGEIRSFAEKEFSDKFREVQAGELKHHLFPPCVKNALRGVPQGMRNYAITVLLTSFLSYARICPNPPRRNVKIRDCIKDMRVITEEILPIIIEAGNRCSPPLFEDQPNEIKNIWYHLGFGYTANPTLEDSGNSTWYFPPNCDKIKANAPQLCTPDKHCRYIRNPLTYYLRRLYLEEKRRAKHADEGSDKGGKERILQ
Protocol: as §1

B1: 49-mer oligodeoxynucleotide (ssDNA)
DNA: AGCTACCATGCCTGCACGAATTAAGCAATTCGTAATCATGGTCATAGCT
[1]
  binding result: binds
[2]
  binding result: no binding
[3]
  binding result: no binding

B2: 49-mer annealed to complementary 49-mer (dsDNA)
DNA 1: AGCTACCATGCCTGCACGAATTAAGCAATTCGTAATCATGGTCATAGCT
DNA 2: AGCTATGACCATGATTACGAATTGCTTAATTCGTGCAGGCATGGTAGCT
[1]; full duplex
  binding result: binds
[2]; full duplex
  binding result: no binding
[3]; full duplex
  binding result: no binding
